B1: purified recombinant PKM1 (natural protein)
chain: not shown
notes: PKM1, the M1 splice isoform of pyruvate kinase M (PKM); also called purified PKM1; source: purified recombinant

Key:
[1] = target: B1; test: pull-down; in vitro pull-down of N13 peptide with purified PKM1 or PKM2, Coomassie blue staining (Figure 7D); settings: both partners purified
recombinant human PARP1 = target: T1, recombinant human PARP1 (human, UniProt P09874 1-1014); test: pull-down; in vitro pull-down of PKM1 and PARP1 (Figure 5E); settings: both partners purified
T1 construct: PARP1 (poly ADP-ribose polymerase 1), human, recombinant; The source is named for the in vitro PARylation assay; source: bought: Sino Biological
T1 sequence (P09874 whole entry): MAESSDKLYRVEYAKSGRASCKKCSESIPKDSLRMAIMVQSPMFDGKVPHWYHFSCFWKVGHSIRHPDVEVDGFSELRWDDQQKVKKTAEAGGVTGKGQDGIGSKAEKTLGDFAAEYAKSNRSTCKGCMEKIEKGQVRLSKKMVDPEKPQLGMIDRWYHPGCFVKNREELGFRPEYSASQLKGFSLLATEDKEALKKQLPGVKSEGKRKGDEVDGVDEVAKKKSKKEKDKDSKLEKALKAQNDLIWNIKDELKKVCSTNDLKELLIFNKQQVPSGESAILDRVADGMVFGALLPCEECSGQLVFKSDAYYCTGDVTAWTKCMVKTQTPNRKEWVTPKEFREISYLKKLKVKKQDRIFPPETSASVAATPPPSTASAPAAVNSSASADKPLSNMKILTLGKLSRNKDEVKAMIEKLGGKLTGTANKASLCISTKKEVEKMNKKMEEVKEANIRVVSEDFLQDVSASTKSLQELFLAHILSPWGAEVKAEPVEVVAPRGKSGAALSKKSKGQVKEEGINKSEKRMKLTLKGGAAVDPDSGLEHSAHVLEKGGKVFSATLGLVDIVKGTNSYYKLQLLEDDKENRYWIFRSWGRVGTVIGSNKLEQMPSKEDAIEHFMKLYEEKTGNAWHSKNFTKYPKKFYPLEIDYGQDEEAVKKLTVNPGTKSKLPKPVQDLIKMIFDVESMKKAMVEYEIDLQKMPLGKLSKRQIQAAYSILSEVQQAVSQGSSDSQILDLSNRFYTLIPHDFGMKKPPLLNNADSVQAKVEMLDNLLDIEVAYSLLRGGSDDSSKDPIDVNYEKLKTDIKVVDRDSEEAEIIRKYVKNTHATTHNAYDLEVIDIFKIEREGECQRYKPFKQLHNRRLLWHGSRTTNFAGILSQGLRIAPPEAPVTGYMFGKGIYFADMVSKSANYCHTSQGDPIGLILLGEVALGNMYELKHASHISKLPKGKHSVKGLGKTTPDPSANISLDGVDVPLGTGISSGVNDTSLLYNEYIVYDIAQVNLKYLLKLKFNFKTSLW

binding result [1] | binding result (recombinant human PARP1) | Binder
binds |  | GFCDIGESVEETIRREVAEEVGL (peptide, UniProt Q86X67 230-252, looked up, The peptide was synthesized conjugated with the membrane-penetrating peptide iRGD (N13-iRGD); also called N13-iRGD; source: synthetic peptide) [N13 peptide (mimic peptide of NUDT13 230–252 AA)]
 | binds | B1
